# Measurements: US20260151521A1
# Tests used:
# [1] = target: human PD-L1 (full-length, expressed on cells) (human) (UniProt Q9NZQ7); assay: immunoreactivity on MC38/mPD-L1-/-/hPD-L1 cells
# [2] = target: human PD-L1 (full-length, expressed on cells) (human) (UniProt Q9NZQ7); assay: immunoreactivity, Study 3: 20 ng 89Zr antibody on 30x10^6 LOX-IMVI cells (endogenous human PD-L1), gamma counter
# [3] = target: human PD-L1 (full-length, expressed on cells) (human) (UniProt Q9NZQ7); assay: immunoreactivity, Study 3: MC38-cOVA/eGFP-mPD-L1-/-hPD-L1Tg cells, cell-bound activity against standards
# [4] = target: human PD-L1 (full-length, expressed on cells) (human) (UniProt Q9NZQ7); assay: immunoreactivity, Study 3: 20 ng 89Zr antibody on 15x10^6 MC38-cOVA/eGFP-mPD-L1-/-hPD-L1Tg cells, gamma counter
# [5] = target: human PD-L1 (full-length, expressed on cells) (human) (UniProt Q9NZQ7); assay: immunoreactivity, Study 1: 20 ng 89Zr antibody on 15x10^6 MC38-cOVA/eGFP-mPD-L1-/-hPD-L1Tg cells, gamma counter
# [6] = target: human PD-L1 (full-length, expressed on cells) (human) (UniProt Q9NZQ7); assay: immunoreactivity, Study 3: LOX-IMVI cells (endogenous human PD-L1), cell-bound activity against standards
# [7] = target: human PD-L1 (full-length, expressed on cells) (human) (UniProt Q9NZQ7); assay: immunoreactivity, Study 1: MC38-cOVA/eGFP-mPD-L1-/-hPD-L1Tg cells, cell-bound activity against standards
# [8] = target: human PD-L1 (full-length, expressed on cells) (human) (UniProt Q9NZQ7); assay: flow cytometry, ex vivo LOX-IMVI tumor cells (Tumor 2) ~3 weeks post implantation in nude mice, antibody at 20 ug/mL
# [9] = target: human PD-L1 (full-length, expressed on cells) (human) (UniProt Q9NZQ7); assay: flow cytometry, dose titration of staining on LOX-IMVI cells treated overnight with 100 ng/mL hIFNγ
# [10] = target: human PD-L1 (full-length, expressed on cells) (human) (UniProt Q9NZQ7); assay: flow cytometry, dose titration of staining on untreated MC38-cOVA/eGFP-mPD-L1-/-hPD-L1Tg cells
# [11] = target: human PD-L1 (full-length, expressed on cells) (human) (UniProt Q9NZQ7); assay: flow cytometry, dose titration on LOX-IMVI and MC38-cOVA/eGFP-mPD-L1-/-hPD-L1Tg cells with or without IFNgamma
# [12] = target: human PD-L1 (full-length, expressed on cells) (human) (UniProt Q9NZQ7); assay: flow cytometry, ex vivo MC38-cOVA/eGFP-mPD-L1-/-hPD-L1Tg tumor cells (Tumor 1) ~3 weeks post implantation in nude mice, antibody at 20 ug/mL
# [13] = target: human PD-L1 (full-length, expressed on cells) (human) (UniProt Q9NZQ7); assay: flow cytometry, dose titration of staining on untreated LOX-IMVI cells
# [14] = target: human PD-L1 (full-length, expressed on cells) (human) (UniProt Q9NZQ7); assay: flow cytometry, dose titration of staining on MC38-cOVA/eGFP-mPD-L1-/-hPD-L1Tg cells treated overnight with 100 ng/mL mIFNγ
# [15] = target: human PD-L1 (full-length, expressed on cells) (human) (UniProt Q9NZQ7); assay: flow cytometry, ex vivo MC38-cOVA/eGFP-mPD-L1-/-hPD-L1Tg tumor cells (Tumor 2) ~3 weeks post implantation in nude mice, antibody at 20 ug/mL
# [16] = target: human PD-L1 (full-length, expressed on cells) (human) (UniProt Q9NZQ7); assay: flow cytometry, ex vivo LOX-IMVI tumor cells (Tumor 1) ~3 weeks post implantation in nude mice, antibody at 20 ug/mL
# UniProt Q9NZQ7, sequence (Q9NZQ7 19-290): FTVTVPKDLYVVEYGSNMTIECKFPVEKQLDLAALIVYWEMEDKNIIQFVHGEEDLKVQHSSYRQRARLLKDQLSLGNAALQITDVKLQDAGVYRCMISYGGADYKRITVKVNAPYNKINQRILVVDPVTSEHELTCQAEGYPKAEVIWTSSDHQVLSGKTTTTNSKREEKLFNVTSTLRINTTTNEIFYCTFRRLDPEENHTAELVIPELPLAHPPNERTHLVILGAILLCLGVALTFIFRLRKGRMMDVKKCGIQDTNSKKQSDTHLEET
Immunoreactivity [1] [%],cell pellet activity [2],Percent IR (immunoreactivity) [3] [%],cell pellet activity [4],cell pellet activity [5],Percent IR (immunoreactivity) [6] [%],Percent IR (immunoreactivity) [7] [%],Mean fluorescence intensity [8],EC50 (read off the curve) [9] [µM],EC50 (read off the curve) [10] [µM],antibody concentration at which median fluorescence intensity reached the plateau [11] [nM],Mean fluorescence intensity [12],EC50 (read off the curve) [13] [µM],EC50 (read off the curve) [14] [µM],Mean fluorescence intensity [15],Mean fluorescence intensity [16],Substance
8.8,65.4,0.7,68,29.6,0.7,0.5,,,,,,,,,,89Zr labeled DFO-conjugated isotype control antibody
,,,,,,,12100,0.02,0.03,150,49600,0.02,0.03,51400,8480,"fluorochrome directly conjugated anti-human PD-L1 antibody (eBioscience, clone MIH1)"
